Source: the supplement of paper PMC11246515
± gives the standard deviation of the averaged measurements.

Assay: total protein half-life in vivo (active degradation + dilution); higher = more stable protein
[1] = E. coli NCM3722 delta-clpP delta-lon delta-hslV, growth: N-lim chemostat, doubling time 6 h
[2] = E. coli NCM3722 delta-clpP, growth: N-lim chemostat, doubling time 6 h
[3] = E. coli NCM3722 delta-hslV, growth: N-lim chemostat, doubling time 6 h
[4] = E. coli NCM3722 delta-lon, growth: N-lim chemostat, doubling time 6 h
[5] = E. coli NCM3722 delta-smpB, growth: N-lim chemostat, doubling time 6 h
[6] = wild type E. coli NCM3722, growth: C-lim chemostat, doubling time 3 h
[7] = wild type E. coli NCM3722, growth: C-lim chemostat, doubling time 6 h
[8] = wild type E. coli NCM3722, growth: C-lim chemostat, doubling time 12 h
[9] = wild type E. coli NCM3722, growth: N-lim chemostat, doubling time 6 h
[10] = wild type E. coli NCM3722, growth: N-lim chemostat, doubling time 12 h
[11] = wild type E. coli NCM3722, growth: P-lim chemostat, doubling time 6 h
[12] = wild type E. coli NCM3722, growth: P-lim chemostat, doubling time 12 h

| Sequence | total protein half-life in vivo [1] | total protein half-life in vivo [2] | total protein half-life in vivo [3] | total protein half-life in vivo [4] | total protein half-life in vivo [5] | total protein half-life in vivo [6] | total protein half-life in vivo [7] | total protein half-life in vivo [8] | total protein half-life in vivo [9] | total protein half-life in vivo [10] | total protein half-life in vivo [11] | total protein half-life in vivo [12] |
| --- | --- | --- | --- | --- | --- | --- | --- | --- | --- | --- | --- | --- |
| MKNKLPPFIEIYRALIATPSISATEEALDQSNADLITLLADWFKDLGFNVEVQPVPGTRNKFNMLASIGQGAGGLLLAGHTDTVPFDDGRWTRDPFTLTEHDGKLYGLGTADMKGFFAFILDALRDVDVTKLKKPLYILATADEETSMAGARYFAETTALRPDCAIIGEPTSLQPVRAHKGHISNAIRIQGQSGHSSDPARGVNAIELMHDAIGHILQLRDNLKERYHYEAFTVPYPTLNLGHIHGGDASNRICACCELHMDIRPLPGMTLNELNGLLNDALAPVSERWPGRLTVDELHPPIPGYECPPNHQLVEVVEKLLGAKTEVVNYCTEAPFIQTLCPTLVLGPGSINQAHQPDEYLETRFIKPTRELITQVIHHFCWH | 4.97 ± 0.62 h | 4.73 ± 0.34 h | 4.636 ± 0.017 h | 4.68 ± 0.19 h | 4.29 ± 0.23 h | 3.27 ± 0.46 h | 5.46 ± 0.24 h | 10.9 ± 2.2 h | 4.68 ± 0.058 h | 7.38 ± 0.21 h | 5.95 ± 0.067 h | 11 ± 0.37 h |
| MKNWKTLLLGIAMIANTSFAAPQVVDKVAAVVNNGVVLESDVDGLMQSVKLNAAQARQQLPDDATLRHQIMERLIMDQIILQMGQKMGVKISDEQLDQAIANIAKQNNMTLDQMRSRLAYDGLNYNTYRNQIRKEMIISEVRNNEVRRRITILPQEVESLAQQVGNQNDASTELNLSHILIPLPENPTSDQVNEAESQARAIVDQARNGADFGKLAIAHSADQQALNGGQMGWGRIQELPGIFAQALSTAKKGDIVGPIRSGVGFHILKVNDLRGESKNISVTEVHARHILLKPSPIMTDEQARVKLEQIAADIKSGKTTFAAAAKEFSQDPGSANQGGDLGWATPDIFDPAFRDALTRLNKGQMSAPVHSSFGWHLIELLDTRNVDKTDAAQKDRAYRMLMNRKFSEEAASWMQEQRASAYVKILSN [P0ABZ6] | 5.66 ± 0.16 h | 6.39 ± 1.2 h | 6.52 ± 0.36 h | 6.49 ± 0.28 h | 5.7 ± 0.35 h | 2.97 ± 0.098 h | 6.4 ± 0.42 h | 11.7 ± 0.87 h | 6.23 ± 0.57 h | 13.1 ± 0.99 h | 5.78 ± 0.24 h | 11.7 ± 0.52 h |
| MKPENKLPVLDLISAEMKTVVNTLQPDLPPWPATGTIAEQRQYYTLERRFWNAGAPEMATRAYMVPTKYGQVETRLFCPQPDSPATLFYLHGGGFILGNLDTHDRIMRLLASYSQCTVIGIDYTLSPEARFPQAIEEIVAACCYFHQQAEDYQINMSRIGFAGDSAGAMLALASALWLRDKQIDCGKVAGVLLWYGLYGLRDSVTRRLLGGVWDGLTQQDLQMYEEAYLSNDADRESPYYCLFNNDLTREVPPCFIAGAEFDPLLDDSRLLYQTLAAHQQPCEFKLYPGTLHAFLHYSRMMKTADEALRDGAQFFTAQL | – | – | – | – | – | 3.18 ± 0.17 h | 5.349 ± 0.029 h | 8.02 ± 2.3 h | – | 11.6 h | 5.69 ± 1.1 h | 10.9 ± 1.4 h |
| MKPLHYTASALALGLALMGNAQAVTTIPFWHSMEGELGKEVDSLAQRFNAENPDYKIVPTYKGNYEQNLSAGIAAFRTGNAPAILQVYEVGTATMMASKAIKPVYDVFKEAGIQFDESQFVPTVSGYYSDSKTGHLLSQPFNSSTPVLYYNKDAFKKAGLDPEQPPKTWQDLADYAAKLKASGMKCGYASGWQGWIQLENFSAWNGLPFASKNNGFDGTDAVLEFNKPEQVKHIAMLEEMNKKGDFSYVGRKDESTEKFYNGDCAMTTASSGSLANIREYAKFNYGVGMMPYDADAKDAPQNAIIGGASLWVMQGKDKETYTGVAKFLDFLAKPENAAEWHQKTGYLPITKAAYDLTREQGFYEKNPGADTATRQMLNKPPLPFTKGLRLGNMPQIRVIVDEELESVWTGKKTPQQALDTAVERGNQLLRRFEKSTKS [P0AG80] | 4.8 ± 0.06 h | 5.43 ± 0.54 h | 7.41 ± 0.31 h | – | 6.14 ± 0.2 h | 3.37 ± 0.17 h | 6.26 ± 0.076 h | 12.9 ± 0.73 h | 6.47 ± 0.47 h | 12.7 ± 0.98 h | 6.14 ± 0.21 h | 12.99 ± 0.1 h |
| MKPLLDVLMILDALEKEGSFAAASAKLYKTPSALSYTVHKLESDLNIQLLDRSGHRAKFTRTGKMLLEKGREVLHTVRELEKQAIKLHEGWENELVIGVDDTFPFSLLAPLIEAFYQHHSVTRLKFINGVLGGSWDALTQGRADIIVGAMHEPPSSSEFGFSRLGDLEQVFAVAPHHPLALEEEPLNRRIIKRYRAIVVGDTAQAGASTASQLLDEQEAITVFDFKTKLELQISGLGCGYLPRYLAQRFLDSGALIEKKVVAQTLFEPVWIGWNEQTAGLASGWWRDEILANSAIAGVYAKSDDGKSAI | 5.91 ± 0.24 h | – | – | – | – | – | – | – | – | – | – | – |
| MKPLSSPLQQYWQTVVERLPEPLAEESLSAQAKSVLTFSDFVQDSVIAHPEWLTELESQPPQADEWQHYAAWLQEALCNVSDEAGLMRELRLFRRRIMVRIAWAQTLALVTEESILQQLSYLAETLIVAARDWLYDACCREWGTPCNAQGEAQPLLILGMGKLGGGELNFSSDIDLIFAWPEHGCTQGGRRELDNAQFFTRMGQRLIKVLDQPTQDGFVYRVDMRLRPFGESGPLVLSFAALEDYYQEQGRDWERYAMVKARIMGDSEGVYANELRAMLRPFVFRRYIDFSVIQSLRNMKGMIAREVRRRGLTDNIKLGAGGIREIEFIVQVFQLIRGGREPSLQSRSLLPTLSAIAELHLLSENDAEQLRVAYLFLRRLENLLQSINDEQTQTLPSDELNRARLAWAMDFADWPQLTGALTAHMTNVRRVFNELIGDDESETQEESLSEQWRELWQDALQEDDTTPVLAHLSEDDRKQVLTLIADFRKELDKRTIGPRGRQVLDHLMPHLLSDVCAREDAAVTLSRITALLVGIVTRTTYLELLSEFPAALKHLISLCAASPMIASQLARYPLLLDELLDPNTLYQPTATDAYRDELRQYLLRVPEDDEEQQLEALRQFKQAQLLRIAAADIAGTLPVMKVSDHLTWLAEAMIDAVVQQAWVQMVARYGKPNHLNEREGRGFAVVGYGKLGGWELGYSSDLDLIFLHDCPMDAMTDGEREIDGRQFYLRLAQRIMHLFSTRTSSGILYEVDARLRPSGAAGMLVTSAEAFADYQKNEAWTWEHQALVRARVVYGDPQLTAHFDAVRREIMTLPREGKTLQTEVREMREKMRAHLGNKHRDRFDIKADEGGITDIEFITQYLVLRYAHEKPKLTRWSDNVRILELLAQNDIMEEQEAMALTRAYTTLRDELHHLALQELPGHVSEDCFTAERELVRASWQKWLVEE | 4.99 ± 0.16 h | 4.75 ± 0.75 h | 4.215 ± 0.0047 h | 5.2 ± 0.75 h | 4.64 ± 0.27 h | 3.414 ± 0.027 h | 6.65 ± 1.2 h | 12.9 ± 0.85 h | 4.22 ± 0.24 h | 7.85 ± 0.1 h | 6.33 ± 0.28 h | 13.3 ± 1.3 h |
